Test results as given in US20250026849A1 (ARCELLX, published 2025).

T1: CD123 (Homo sapiens (Human), UniProt P26951 19-305, limits assumed)
T1 construct: The CD123 construct used in the ELISA is not described; also called CD123-Signal
T1 sequence: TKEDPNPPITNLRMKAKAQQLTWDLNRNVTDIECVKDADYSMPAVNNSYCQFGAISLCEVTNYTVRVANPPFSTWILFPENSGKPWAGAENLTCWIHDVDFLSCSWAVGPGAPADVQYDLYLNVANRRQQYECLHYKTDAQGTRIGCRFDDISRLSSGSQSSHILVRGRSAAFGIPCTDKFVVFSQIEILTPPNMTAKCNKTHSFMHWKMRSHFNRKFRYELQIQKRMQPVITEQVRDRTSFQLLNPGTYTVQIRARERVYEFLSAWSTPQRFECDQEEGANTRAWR


Molecular target: T1, CD123
Experiment: ELISA
Design: unit not given here

ELISA_avg	Binder
3.3	D domain of SEQ ID NO: 421 (designed binder) MGSWTEFYNRLDAIDQRLWALGGSEAELAAFEKEIAAFESELQAYKGKGNPEVEMLREYAADIRTDLQAYRHN
4	D domain of SEQ ID NO: 422 (designed binder) MGSWWEFIWRLEAIEQRLWALGGSEAELAAFEKEIAAFESELQAYKGKGNPEVEVLRSRAADIRTDLQAYRHN
25.3	D domain of SEQ ID NO: 448 (designed binder) MGSWVEFEMRLDAIVGRLYALGGSEAELAAFEKEIAAFESELQAYKGKGNPEVEKLRRWAANIRSELQAYRHN
19.3	D domain of SEQ ID NO: 452 (designed binder) MGSWTEFNLRLDAIYGRLSALGGSEAELAAFEKEIAAFESELQAYKGKGNPEVEFLRAAAANIRVELQAYRHN
13.6	D domain of SEQ ID NO: 461 (designed binder) MGSWFEFYDRLDAIYMRLIALGGSEAELAAFEKEIAAFESELQAYKGKGNPEVEVLRRYAANIRAELQAYRHN
17	D domain of SEQ ID NO: 459 (designed binder) MGSWVEFIYRLDAIYDRLEALGGSEAELAAFEKEIAAFESELQAYKGKGNPEVEVLRRYAANIRNELQAYRHN
13.1	D domain of SEQ ID NO: 462 (designed binder) MGSWFEFYMRLDAIYDRLTALGGSEAELAAFEKEIAAFESELQAYKGKGNPEVERLRTFAANIRKELQAYRHN
15.6	D domain of SEQ ID NO: 450 (designed binder) MGSWHEFGVRLDAIYDRLMALGGSEAELAAFEKEIAAFESELQAYKGKGNPEVEFLRQAAANIRSELQAYRHN
16.1	D domain of SEQ ID NO: 455 (designed binder) MGSWTEFAWRLDAIYDRLLALGGSEAELAAFEKEIAAFESELQAYKGKGNPEVEWLRHVAANIRRELQAYRHN
9.3	D domain of SEQ ID NO: 453 (designed binder) MGSWVEFNWRLDAIYDRLVALGGSEAELAAFEKEIAAFESELQAYKGKGNPEVEWLRVSAAKIRGELQAYRHN
15.1	D domain of SEQ ID NO: 456 (designed binder) MGSWVEFSIRLDAIYTRLVALGGSEAELAAFEKEIAAFESELQAYKGKGNPEVEMLRKGAANIRKELQAYRHN
14.4	D domain of SEQ ID NO: 451 (designed binder) MGSWTEFNLRLDAIYDRLMALGGSEAELAAFEKEIAAFESELQAYKGKGNPEVEWLRASAAAIRVELQAYRHN
17.7	D domain of SEQ ID NO: 454 (designed binder) MGSWNEFAWRLDAIYSRLAALGGSEAELAAFEKEIAAFESELQAYKGKGNPEVEWLRVAAANIRYELQAYRHN
20.8	D domain of SEQ ID NO: 460 (designed binder) MGSWIEFEVRLDAIYNRLAALGGSEAELAAFEKEIAAFESELQAYKGKGNPEVERLRRYAANIRHELQAYRHN
16.1	D domain of SEQ ID NO: 457 (designed binder) MGSWVEFYIRLDAIYVRLMALGGSEAELAAFEKEIAAFESELQAYKGKGNPEVEKLRSYAANIRQELQAYRHN
15.7	D domain of SEQ ID NO: 464 (designed binder) MGSWSEFYLRLDAIYDRLDALGGSEAELAAFEKEIAAFESELQAYKGKGNPEVEWLRKTAANIREELQAYRHN
13	D domain of SEQ ID NO: 458 (designed binder) MGSWYEFSMRLDAIYDRLMALGGSEAELAAFEKEIAAFESELQAYKGKGNPEVEQLRGYAANIRNELQAYRHN
24.9	D domain of SEQ ID NO: 463 (designed binder) MGSWYEFDYRLDAIYDRLAALGGSEAELAAFEKEIAAFESELQAYKGKGNPEVERLRKWAANIREELQAYRHN
13.4	D domain of SEQ ID NO: 449 (designed binder) MGSWVEFNIRLDAIYERLYALGGSEAELAAFEKEIAAFESELQAYKGKGNPEVEKLRHWAASIRRELQAYRHN
17	D domain of SEQ ID NO: 423 (designed binder) MGSWSEFYDRLWAIEERLFALGGSEAELAAFEKEIAAFESELQAYKGKGNPEVEYLRYYAAEIREELQAYRHN
5.6	D domain of SEQ ID NO: 427 (designed binder) MGSWWEFENRLWAIEERLEALGGSEAELAAFEKEIAAFESELQAYKGKGNPEVEMLRNYAAEIRWELQAYRHN
4.1	D domain of SEQ ID NO: 428 (designed binder) MGSWVEFEERLWAIDERLGALGGSEAELAAFEKEIAAFESELQAYKGKGNPEVEWLRDWAADIRWWLQAYRHN

Continued, binder first:

Binder	ELISA_avg
D domain of SEQ ID NO: 368 (designed binder) MGSWDEFYYRLEAIEMRLGALGGSEAELAAFEKEIAAFESELQAYKGKGNPEVEELRHYAAQIRHMLQAYRHN	7.2
D domain of SEQ ID NO: 369 (designed binder) MGSWEEFYDRLEAIYNRLGALGGSEAELAAFEKEIAAFESELQAYKGKGNPEVEVLREYAADIREMLQAYRHN	18.6
D domain of SEQ ID NO: 366 (designed binder) MGSWEEFAQRLYAIEWRLYALGGSEAELAAFEKEIAAFESELQAYKGKGNPEVEVLRYVAAQIRYHLQAYRHN	16.9
D domain of SEQ ID NO: 385 (designed binder) MGSWDEFGRRLYAIEWRLYALGGSEAELAAFEKEIAAFESELQAYKGKGNPEVEKLREIAAVIRSNLQAYRHN	5.8
D domain of SEQ ID NO: 418 (designed binder) MGSWEEFWERLDAIDTRLWALGGSEAELAAFEKEIAAFESELQAYKGKGNPEVEVLRNDAADIREPLQAYRHN	6.8
D domain of SEQ ID NO: 419 (designed binder) MGSWMEFWERLEAIDMRLWALGGSEAELAAFEKEIAAFESELQAYKGKGNPEVEYLRDDAAVIRDDLQAYRHN	4.2
D domain of SEQ ID NO: 395 (designed binder) MGSWVEFDQRLGAIWDRLVALGGSEAELAAFEKEIAAFESELQAYKGKGNPEVEHLRQGAAVIRDDLQAYRHN	5.3
D domain of SEQ ID NO: 407 (designed binder) MGSWEEFFTRLDAINERLEALGGSEAELAAFEKEIAAFESELQAYKGKGNPEVEMLRYEAAEIRHMLQAYRHN	3.9
D domain of SEQ ID NO: 408 (designed binder) MGSWYEFSNRLDAIGERLWALGGSEAELAAFEKEIAAFESELQAYKGKGNPEVEILRHQAAEIRWFLQAYRHN	3.9
D domain of SEQ ID NO: 398 (designed binder) MGSWHEFDQRLWAIEERLWALGGSEAELAAFEKEIAAFESELQAYKGKGNPEVETLRLYAALIRHDLQAYRHN	3.3
D domain of SEQ ID NO: 367 (designed binder) MGSWDEFAWRLDVIFARLGALGGSEAELAAFEKEIAAFESELQAYKGKGNPEVEELRKNAAQIRDGLQAYRHN	4.6
D domain of SEQ ID NO: 420 (designed binder) MGSWLEFMWRLDAIDERLWALGGSEAELAAFEKEIAAFESELQAYKGKGNPEVELLREMAAAIRDDLQAYRHN	5.1
D domain of SEQ ID NO: 394 (designed binder) MGSWDEFEQRLIAIEERLFALGGSEAELAAFEKEIAAFESELQAYKGKGNPEVEWLREEAAVIRKYLQAYRHN	5.9
D domain of SEQ ID NO: 360 (designed binder) MGSWTEFVWRLEAIWDRLDALGGSEAELAAFEKEIAAFESELQAYKGKGNPEVEVLREDAAVIRHFLQAYRHN	3.6
D domain of SEQ ID NO: 410 (designed binder) MGSWVEFWDRLWAIDYRLFALGGSEAELAAFEKEIAAFESELQAYKGKGNPEVEALRDEAAWIREELQAYRHN	3.6
D domain of SEQ ID NO: 424 (designed binder) MGSWSEFEDRLWAIDQRLFALGGSEAELAAFEKEIAAFESELQAYKGKGNPEVEWLRAYAADIRWELQAYRHN	4.2
D domain of SEQ ID NO: 417 (designed binder) MGSWDEFEERLFAIDERLWALGGSEAELAAFEKEIAAFESELQAYKGKGNPEVEALRYLAADIREELQAYRHN	5
D domain of SEQ ID NO: 411 (designed binder) MGSWVEFVDRLWAIDERLDALGGSEAELAAFEKEIAAFESELQAYKGKGNPEVEFLRTWAAWIREDLQAYRHN	3.2
D domain of SEQ ID NO: 399 (designed binder) MGSWVEFWDRLDAIEGRLWALGGSEAELAAFEKEIAAFESELQAYKGKGNPEVEDLRWLAAEIRADLQAYRHN	3.5
D domain of SEQ ID NO: 409 (designed binder) MGSWYEFWGRLDAIEERLWALGGSEAELAAFEKEIAAFESELQAYKGRGNPEVEMLREDAAEIRGQLQAYRHN	5.4
D domain of SEQ ID NO: 406 (designed binder) MGSWFEFNYRLGAIEDRLWALGGSEAELAAFEKEIAAFESELQAYKGKGNPEVEMLRQIAAEIREFLQAYRHN	6.9
